# Substitutions are numbered along the chain they refer to.
# T1: human CDCP1 on tumor cells (human, UniProt Q9H5V8 30-836)
# T1 construct: whole, on cells; cell line is named under assay or readout
# T1 sequence (looked up): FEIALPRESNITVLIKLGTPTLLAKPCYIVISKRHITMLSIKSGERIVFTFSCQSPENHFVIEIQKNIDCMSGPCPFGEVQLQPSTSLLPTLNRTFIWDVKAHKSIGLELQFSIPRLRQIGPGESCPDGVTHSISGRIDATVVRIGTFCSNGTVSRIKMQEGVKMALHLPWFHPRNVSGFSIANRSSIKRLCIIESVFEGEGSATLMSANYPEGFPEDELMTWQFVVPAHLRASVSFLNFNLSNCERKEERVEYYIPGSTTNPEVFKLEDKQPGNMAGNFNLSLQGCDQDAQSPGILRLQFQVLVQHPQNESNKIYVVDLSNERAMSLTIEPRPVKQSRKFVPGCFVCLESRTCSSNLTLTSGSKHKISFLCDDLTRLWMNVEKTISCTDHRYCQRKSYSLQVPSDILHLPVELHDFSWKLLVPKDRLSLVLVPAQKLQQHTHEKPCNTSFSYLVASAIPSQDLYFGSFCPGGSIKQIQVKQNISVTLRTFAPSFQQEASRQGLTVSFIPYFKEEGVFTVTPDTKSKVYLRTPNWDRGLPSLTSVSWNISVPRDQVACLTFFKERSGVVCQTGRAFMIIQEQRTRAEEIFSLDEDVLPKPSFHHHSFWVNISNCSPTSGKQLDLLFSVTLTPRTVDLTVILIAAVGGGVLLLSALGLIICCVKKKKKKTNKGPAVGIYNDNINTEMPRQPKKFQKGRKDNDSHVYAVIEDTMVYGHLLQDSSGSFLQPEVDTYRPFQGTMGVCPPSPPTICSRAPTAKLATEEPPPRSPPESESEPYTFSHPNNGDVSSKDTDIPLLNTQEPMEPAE
# T2: HuCDCP1-C (human, UniProt Q9H5V8 30-667)
# T2 construct: range 30-667; expressed in HEK-293T, purified by Fc/his tag; also called human CDCP1-C; full-length extracellular domain of human CDCP1; not shown: Fc or his tag
# T2 sequence (looked up): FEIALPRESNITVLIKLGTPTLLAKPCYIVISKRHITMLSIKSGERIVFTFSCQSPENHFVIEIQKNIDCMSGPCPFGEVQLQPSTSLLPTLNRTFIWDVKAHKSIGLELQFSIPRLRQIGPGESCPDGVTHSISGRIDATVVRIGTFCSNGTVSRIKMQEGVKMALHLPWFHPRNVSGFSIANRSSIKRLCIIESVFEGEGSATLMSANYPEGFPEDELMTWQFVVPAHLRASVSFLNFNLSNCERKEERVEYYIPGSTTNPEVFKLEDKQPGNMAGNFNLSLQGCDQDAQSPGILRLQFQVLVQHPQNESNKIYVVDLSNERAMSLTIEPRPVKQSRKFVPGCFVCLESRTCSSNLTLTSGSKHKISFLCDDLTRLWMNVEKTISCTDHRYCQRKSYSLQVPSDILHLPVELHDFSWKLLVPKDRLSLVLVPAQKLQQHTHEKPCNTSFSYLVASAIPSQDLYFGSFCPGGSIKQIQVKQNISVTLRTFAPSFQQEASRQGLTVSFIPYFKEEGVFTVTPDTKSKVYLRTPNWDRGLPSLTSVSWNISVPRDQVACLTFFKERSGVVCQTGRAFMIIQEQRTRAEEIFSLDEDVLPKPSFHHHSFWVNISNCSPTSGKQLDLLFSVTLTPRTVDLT
# T3: MsCDCP1 (mouse, UniProt Q5U462 30-666)
# T3 construct: extracellular domain; also called mouse CDCP1; not shown: Fc or his tag
# T3 sequence (looked up): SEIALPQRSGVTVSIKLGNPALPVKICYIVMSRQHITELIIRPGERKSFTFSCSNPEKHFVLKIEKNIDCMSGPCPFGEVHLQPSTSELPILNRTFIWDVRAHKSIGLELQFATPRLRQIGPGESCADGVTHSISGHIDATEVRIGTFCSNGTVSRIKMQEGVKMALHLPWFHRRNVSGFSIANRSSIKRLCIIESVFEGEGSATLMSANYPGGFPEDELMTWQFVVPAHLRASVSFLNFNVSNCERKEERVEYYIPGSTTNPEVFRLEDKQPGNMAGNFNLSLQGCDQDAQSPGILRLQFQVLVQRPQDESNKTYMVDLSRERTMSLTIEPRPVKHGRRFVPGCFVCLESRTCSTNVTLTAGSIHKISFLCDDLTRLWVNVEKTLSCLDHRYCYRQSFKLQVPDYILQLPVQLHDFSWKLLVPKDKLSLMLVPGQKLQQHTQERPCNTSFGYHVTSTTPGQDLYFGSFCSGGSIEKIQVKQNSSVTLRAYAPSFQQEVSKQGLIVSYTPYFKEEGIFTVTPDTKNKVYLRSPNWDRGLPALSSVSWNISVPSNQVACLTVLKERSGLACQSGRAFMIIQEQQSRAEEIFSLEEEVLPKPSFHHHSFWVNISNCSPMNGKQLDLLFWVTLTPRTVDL
# B1: 12E6 (antibody, V domains shown)
# VH: EVQLKESGPGILQPSQTLSLTCSFSGFSLSTSGMGVGWIRQPSGKGLEWLAHIWWDDVKLYNPALKSRLTISKETSNNQVFLKIASVDAADTATYYCARIDHGYGSNYWDFDVWGAGTTVTVSS
# VL: DIVMTQAAPSVPVTPGGSVSISCRSTKSLLHSDGKTYLYWFLQRPGQSPQLLIYRMSNLASGVPDRFSGSGSGTAFTLRISRVEAEDVGVYYCMQHLEYPFTFGSGTKLEIK
# notes: murine hybridoma mAb
# B2: 8E5 (antibody, V domains shown)
# VH: EVQLKESGPELKKPGETVKISCKASGYTLTDFSMHWLKQAPGKGLKWMGWINTETGAPTYADDFKGRFALSLDTSANTAYLQINNLKNEDTATYFCSRGRDYDPHFDYWGQGTTVTVSS
# VL: EIVLTQSPATLSVTPGDRVSLSCRASQSISDFLHWYQQRSHESPRLLIKYASQSISGIPSRFGGSGSGSDFTLNINTVEPEDVGMYYCQSAHSFPYTFGGGTKLEIK
# notes: murine hybridoma mAb; also called 8ES
# B3: 10D2 (antibody, V domains shown)
# VH: EVQLQQSGPELKKPGETVKISCKASGYTFTDYSMHWVKQAPGKGLKWMGWINTETGQPTYADDFKGRFAFSLETSASSAYLQINNLKNEDTATYFCTRTFYYDYVGDYWGQGTTVTVSS
# VL: DIVMTQSHKFMSTSVGDRVSITCKASQDVSTAVAWYRQKPGQSPKLLIYWASTRHTGVPDRLTGSGSGTDFALTINSVQAEDLALYYCQQHSSTPYTFGGGTKLEIK
# notes: murine hybridoma mAb
# B4: 6A7 (antibody, V domains shown)
# VH: EVQLKESGAELVRPGASVKVSCKASGYSFTSYWMNWVKQRPGQGLEWIGMIHPSDSETKLNQKFRDRASLTVDKSSSTAYMQLSSPTSEDSAVYYCTINYESFYYAMDYWGQGTTVTVSS
# VL: DIVMTQSPASLAVSLGQRATISCRASKSVSTSGYSYMHWYQQKPGQPPKLLLYLASNLESGVPARFSGSGSGADFTLNIHPVEEEDAATYYCLHSRELPYTFGGGTKLEIK
# notes: murine hybridoma mAb
# B5: 5B8 (antibody, V domains shown)
# VH: EVQLKESGGGLVQPGGSLRISCATSGLTFTHYHMSWVRQPPGKAPEWLAIIRNKAYGYTTDYSASVRGRFTISRDDSQSILYLQMNTLRAEDSATYYCVREGGYGYDGTFAYWGQGTTVTVSS
# VL: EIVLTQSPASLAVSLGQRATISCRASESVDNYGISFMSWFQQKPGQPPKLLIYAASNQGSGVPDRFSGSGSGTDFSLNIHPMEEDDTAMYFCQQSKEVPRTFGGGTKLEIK
# notes: murine hybridoma mAb
# B6: 8C9 (antibody, V domains shown)
# VH: B5 VH with A90P
# VL: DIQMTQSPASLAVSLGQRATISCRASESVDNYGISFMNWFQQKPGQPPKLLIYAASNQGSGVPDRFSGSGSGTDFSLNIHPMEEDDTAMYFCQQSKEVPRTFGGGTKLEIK
# notes: murine hybridoma mAb
# B7: 3C11 (antibody, V domains shown)
# VH: EVQLQQSGTVLARPGASVKMSCKASGYNFISYWLHWIKQRPGQGLEWIGGIYPGNTDTTYNQKFKGKAKVTAVTSATTAYMELSSLTNEDSAVYYCIRYDYDRGMDYWGQGTTVTVSS
# VL: DIQMTQSPSSFSVSLGDRVTITCRASEDIYYRLAWYQQKPGNAPRLLISGATALETGVPSRFSGSGSGKDYTLSITSLQTEDVATYYCQHYWNIPWTFGGGTKLEIK
# notes: murine hybridoma mAb
# B8: 3B12H5 (antibody, V domains shown)
# VH: EVQLQQSGTVLARPGASVKMSCKASGYSFTIYWVHWVKQRPGQGLEWIGAVYPGNDDTSYNQNFKGKAKLTAVTSATTAYMELSSLTIDDSAVYYCTRHTYDEVFDYWGQGTTVTVSS
# VL: B7 VL with Q3V, F11L, R24K, A51G, A53N, T56A, V58I, T85I, I94T
# notes: murine hybridoma mAb; also called 3B12HS
# B9: G10F6 (antibody, V domains shown)
# VH: EVKLVESGPGILQPSQTLSLTCSFSGFSLSTSGMGVSWVRQPSGKGLEWLAHIYWDDDKRYNPSLKGRLTISKDTPRNQVFLEITSVDTTDTATYYCARVPGNWDEDAMDYWGQGTTVTVSS
# VL: DIQMTQSPLSLPVSLGDQASISCRSSQNIVHTNGNTYLEWYLQKVGQSPKLLIYKVSNRFSGVPDRFSGSGSGTDFTLKISRVEAEDLGVYYCFQGSHVPYTFGGGTKLEIK
# notes: murine hybridoma mAb
# B10: 3F1A11 (antibody, V domains shown)
# VH: EVKLVESGPGLVKPSQSLSLTCTVTGYSITSDYAWNWIRQFPGNKLEWMGYISYNTYTSYNPSLKSRISVTRDTSKNQFFLQLKSVTIEDTATYFCAGGDYYGTGAVDYWGQGTTVTVSS
# VL: EIVLTQSPLSLPVSLGDQASISCRSRQTLVHTNGNTYLDWYLQKPGQSPKLLIYKVSIRFSGVPDRFSGSRSGTDFTLKISRVEAEDLGIYYCFQGSHVPWTFGGGTKLEIK
# notes: murine hybridoma mAb
# B11: 14A10C5 (antibody, V domains shown)
# VH: EVKLVESGPGILQPSQTLSLTCSFSGFSLSTSGMGVSWIRQPSGKGLEWLAHIYWDDEKRYNPSLKSRLTISKDTSSNQVFLKITSVDTADTATYYCAREGSANWEAMDYWGQGTTVTVSS
# VL: B9 VL with Q3V, S7A, P8A, H31Y, N35I, V45P, G73A, G96S, Y101W
# notes: murine hybridoma mAb; also called 14A10CS
# Molecular target: T1, human CDCP1 on tumor cells
# Test: flow cytometry, MDA-MB-231 cells
# Experimental: Flow cytometry was used to detect the binding capacity of antibody to tumor cells. […] 2.0×10⁴ tumor cells were added per well, respectively, and 50 μL (PBS+2% FBS) were added, and after blocking at room temperature with an Fe blocker (Human TruStain FcX™, Biolegend, 422302) for 10 mins, an anti-CDCP1 murine monoclonal antibody at a final concentration of 200 nM was added. The obtained mixture was subjected to a 3-fold serial dilution across 8 concentration points, and incubated at 4° C. for 30 mins, and then incubated with a secondary antibody (PE anti-human IgG Fc Antibody, Biolegend, 410708), detection was performed using a flow cytometer.
row,EC50,Binder
1,85.5 nM,B1
2,0.67 nM,B2
3,0.49 nM,B3
4,1.72 nM,B4
5,0.93 nM,B5
6,0.47 nM,B6
7,0.27 nM,B7
8,0.47 nM,B8
9,0.19 nM,B9

# Molecular target: T2, HuCDCP1-C
# Test: SPR (Caterra or Biacore), antigen immobilized
row,EC50,Binder
1,0.0634 nM,B1
2,0.105 nM,B2
3,0.705 nM,B3
4,9.65 nM,B4
5,1.19 nM,B5
6,1.72 nM,B6
7,3.96 nM,B7
8,0.723 nM,B8
9,37.9 nM,B10
10,5.63 nM,B9
11,2.02 nM,B11

# Molecular target: T3, MsCDCP1
# Test: SPR (Caterra or Biacore), antigen immobilized
EC50,Binder,binding result
4010 nM,B1,–
–,B2,no binding (tested: 150 nM highest concentration)
–,B3,no binding (tested: 150 nM highest concentration)
27.5 nM,B4,–
–,B5,no binding (tested: 150 nM highest concentration)
–,B6,no binding (tested: 150 nM highest concentration)
–,B7,no binding (tested: 150 nM highest concentration)
–,B8,no binding (tested: 150 nM highest concentration)
–,B10,no binding (tested: 150 nM highest concentration)
–,B9,no binding (tested: 150 nM highest concentration)
–,B11,no binding (tested: 150 nM highest concentration)

# — patent publication US20260250410A1 (SICHUAN HUIYU PHARMACEUTICAL, published 2026)
